Assay results taken from the supplement of paper PMC9170038.

Test system: MS2 coat protein
Assay: apparent KD of MS2 coat protein; designed switch direction (-1 OFF switch, 1 ON switch): -1; higher = weaker reporter binding
In short: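 The apparent KD reported per design is the median over clusters of curve fits to normalised cluster fluorescence. The RNA switches were transcribed on Illumina chips by stalled E. coli RNA polymerase. SNAP-549-labelled MS2 coat protein was titrated from 0.7 or 1.5 nM, doubling up to 3 µM, in Tris-HCl pH 7.5 buffer containing KCl, MgCl2, BSA, DTT, tRNA and Tween-20, with no input, 200 uM small-molecule ligand, or an oligonucleotide input.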

[1] = Eterna round: R95, input ligand: FMN 200 uM
[2] = Eterna round: R95, input ligand: microRNA oligo, concentration not stated
[3] = Eterna round: R95, input ligand: none
[4] = input ligand: microRNA oligo, concentration not stated

Row | Sequence | apparent KD of MS2 coat protein [1] | apparent KD of MS2 coat protein [2] | apparent KD of MS2 coat protein [3] | apparent KD of MS2 coat protein (input ligand: FMN 200 uM) | apparent KD of MS2 coat protein (input ligand: none) | apparent KD of MS2 coat protein [4]
1 | GAUAAGGUAGGAUAUACGAAGAAAGAGGGUAGUAAUAAUACACAUGAGGAUCACCCAUGUAGAAGGACCAAGAG [Mat - Exclusion 2 - Mod of my Tesla design - D44] (puzzle: Exclusion 2) | 0.0387 µM | 0.023 µM | 0.0221 µM | – | – | –
2 | CAGUACUGAGGAUAUACAUGAGGAUCACCCAUGUGUUCCAGCUAGGAGACUAGCAAAUGUAGAAGGCAGUACUG [jl-ex3-4.02 salish99 mod] (Eterna round: R97, puzzle: Exclusion 3) | – | – | – | 0.615 µM | 0.406 µM | –
3 | AAGAAGAUAGGAUAUACGAGGAGAGGAGAGAAGAGGAGAGGACAUGAGGAUCACCCAUGUAGAAGGAUCAGGAA [JR_Exclu2_Sub062] (puzzle: Exclusion 2) | 0.0289 µM | 0.0296 µM | 0.0285 µM | – | – | –
4 | GGAAGGUCAGGAUAUGCGAGGGAGUGGGAAAUAGGAUGGUAGCAGAAGGGACAUGAGGAUCACCCAUGUUAGGA [JR_Exclu4_Sub0101] (puzzle: Exclusion 4) | – | 0.028 µM | – | – | – | –
5 | GCAAGCGACUAGGCUCGUCUUAUAUUGAAAAGAUUGAAAACAUGAGGAUCACCCAUGUAUGUGGGAGAGUUGAAGUG [JR_SV3TOV2_Sub011] (puzzle: Sensor v3, turn-off variant 2) | 0.286 µM | 0.395 µM | 0.31 µM | – | – | –
6 | UUUUAAAAGCUGAGAUCCUACAUGAGGAUCACCCAUGUGGUCCGGAAAAUUUUGUCACCGGAUUUUGCUCGUCUUGU [salish99_S_TOV1_R5_103] (Eterna round: R97, puzzle: Sensor, turn-off variant 1) | – | – | – | 0.102 µM | 0.114 µM | –
7 | AAGGAACAUGAGGAUCACCCAUGUGAGGAUAUGUGAGAAGGAUUUGAGAAGGAGAGGGACAGAAGGCACUAGGA [JR_Exclu1_Sub081] (puzzle: Exclusion 1) | – | 0.0347 µM | – | – | – | –
8 | UAUUAGCAAGCGAGAUCCCACAUGAGGAUCACCCAUGUAAAGCAUCCAGAAUUACUGGGUGCAAAAGCUCGUCUUAU [Winner reversed engineered 6] (Eterna round: R97, puzzle: Sensor, turn-off variant 1) | – | – | – | 0.0294 µM | 0.0317 µM | –
9 | AUUAAAGACCGAGGAUAUCGAGGAAAUACCCUGCGAGAAGGCGGGUACUCGGACGAUUCGACAUGAGGAUCACCCAUGUGCACA [Atrivece] (Eterna round: R96, puzzle: Exclusion NG 1) | – | – | – | 0.0266 µM | 0.0259 µM | 0.0245 µM
10 | GAUCACUGAGGAUAUACACAGAUACAAAGUAUCUGAUAGUGACAUGAGGAUCACCCAUGUAGAAGGCAGAGGUC [Omei Ex2 B8] (Eterna round: R97, puzzle: Exclusion 2) | – | – | – | 0.433 µM | 0.0722 µM | –
11 | AUAUCGUGAGGAUAUCCAAUAUAUGACAUGAGGAUCACCCAUGUUUCCACUCGUACCUCCGGAGAAGGCACAGUUA [Ex5 #72] (Eterna round: R97, puzzle: Exclusion 5) | – | – | – | 0.0239 µM | 0.0245 µM | –
12 | AGUACUAACACGAGAGUGUUAGUACAAUAAGCUUGUGUUACAUGAGGAUCACCCAUGUCCUCAUAAGCUCGUCUUAU [Mat - Sensor v3 - Turn-off var 2 - D53] (puzzle: Sensor v3, turn-off variant 2) | 0.133 µM | 0.246 µM | 0.115 µM | – | – | –
13 | AAAAAACAUGAGGAUCACCCAUGUAAGGAUAUCUAAAAUAAAAGAAAAAUAAAGAAAAGGAGAAGGUACAAGGA [JL wbt mod 25] (Eterna round: R96, puzzle: Exclusion 1) | – | – | – | 0.0325 µM | 0.0298 µM | 0.0234 µM
14 | GCUGGUCGAGGAUAUACAAUCGUGCUUCGGCACGUAAGGUCACAUGAGGAUCACCCAUGUAGAAGGCGACCAGC [E2/2-A2] (Eterna round: R97, puzzle: Exclusion 2) | – | – | – | 0.175 µM | 0.0309 µM | –
15 | GUGAGAUAGUUAGUGGACGACAUGAGGAUCACCCAUGUGAGGGAAAUGUUAAGGAGAAAGCUUUUUGCUCGUCUUUA [JR_SV3TOV1_Sub035] (puzzle: Sensor v3, turn-off variant 1) | 0.0989 µM | 0.0704 µM | 0.18 µM | – | – | –
16 | CGGUGUAAGUCAGGAUAUGAGCGCAACUGACGAUCAGAAGGGACACAUGAGGAUCACCCAUGUGAUUUCUCAAUAUUAUACAUC [Prohibition 90 - Jieux - Exclusion NG 1] (Eterna round: R96, puzzle: Exclusion NG 1) | – | – | – | 0.0307 µM | 0.0231 µM | 0.0144 µM
17 | AUUGUUUGAUACCUCUAAUACAUGAGGAUCACCCAUGUUAUCGAGGAUAUGCAGUAGAGUGGAGAGCAGAAGGCGAAGUAAGUG [JR_ExcNG3_Sub028] (Eterna round: R96, puzzle: Exclusion NG 3) | – | – | – | 0.027 µM | 0.0137 µM | 0.0144 µM

Row | Sequence | apparent KD of MS2 coat protein [1] | apparent KD of MS2 coat protein [2] | apparent KD of MS2 coat protein [3] | apparent KD of MS2 coat protein (input ligand: FMN 200 uM) | apparent KD of MS2 coat protein (input ligand: none) | apparent KD of MS2 coat protein [4]
18 | CAGCUGAAAGUCAGGAUAUCUAGAGCUUCGGCUCUAGAGAAGGGACAUGAGGAUCACCCAUGUGAUCACAGCUG [BmEx4/4-A1] (Eterna round: R97, puzzle: Brourd's mod of Exclusion 4) | – | – | – | 0.152 µM | 1.9 µM | –
19 | UGCCUAGCAGGAUAUGCUCGGGAUUACAUGAGGAUCACCCAUGUGACUGAUUGUUGUCUUGCAGAAGGGCUAGGGA [JL-EX5-4.05 ViennaUCT mod] (Eterna round: R97, puzzle: Exclusion 5) | – | – | – | 0.443 µM | 0.0997 µM | –
20 | GGCAUGUAAGGAUAUGUGAAGGGAAGGAGAGGGAGAGGGAAGCAGAAGGUACAUGAGGAUCACCCAUGUAAGGG [AK-MS2ROC-r4-exclusion4-5.1] (Eterna round: R97, puzzle: Exclusion 4) | – | – | – | 0.203 µM | 0.108 µM | –
21 | GGAUUUUCUGAGGAUAUUGCAUCACCCGAUUUAUAAGAAGGCAGAACAUGAGGAUCACCCAUGUGGGUCUCUAG [Bingo-Bango-26] (Eterna round: R97, puzzle: Exclusion 6) | – | – | – | 0.0306 µM | 0.0245 µM | –
22 | CAUAAGUGAGGAUAUCCUGGCCCUAUGCGUUAGGCGCGCUAGGAGAAGGCACAUGAGGAUCACCCAUGUCUCUC [Eternabot (L1) Solution 21] (Eterna round: R97, puzzle: Exclusion 4) | – | – | – | 0.0766 µM | 0.0297 µM | –
23 | GGAGGACGAGCAGGAUAUUUUUACAUGAGGAUCACCCAUGUGUAAUCAGGGUAAUCCUCCACCGAAAAGAAGGGUUCGGAAGAA [Mat - Exclusion NG 2 - Mod of JL - D84] (Eterna round: R96, puzzle: Exclusion NG 2) | – | – | – | 0.0181 µM | 0.0706 µM | 0.00917 µM
24 | UGUUGUCGCGUAGGAUAUGCAUGAGGAUCACCCAUGCAAUUAGAGUUAACAUGAGGAUCACCCAUGUAGAAGGACGGGACAACU [pwkr exNG2 2xF5 1xFMN.6] (Eterna round: R96, puzzle: Exclusion NG 2) | – | – | – | 0.0892 µM | 0.0541 µM | 0.0346 µM
25 | AAUUUACAUGAGGAUCACCCAUGUGAGGAUAUAUACAAAGAAGUGUUAUUAAGAAUGUAUAGAAGGCGCGUGAU [JR_Exc1_Sub039] (Eterna round: R97, puzzle: Exclusion 1) | – | – | – | 0.0736 µM | 0.062 µM | –
26 | UAUUAACAAGCUAGAUCCUACAUGAGGAUCACCCAUGUGCUCGUCUUAUAAGGUACUGUGACGAAAGUCACGGUACC [Sensor 3, v1 - 76] (puzzle: Sensor v3, turn-off variant 1) | 0.265 µM | 0.0424 µM | 0.243 µM | – | – | –
27 | CUUUUGUGAGGAUAUCAGUAGUAAAAAAAUAAAUUUACUACUGAGAAGGCACAUGAGGAUCACCCAUGUUCCUC [salish99_ex4_r3_025] (puzzle: Exclusion 4) | – | 0.0429 µM | – | – | – | –
28 | AAAGUACAUGAGGAUCACCCAUGUCAGGAUAUUGCCACAAGGCCCGGAGCCCAGAGCGCGAGAAGGGACAUUAG [Eternabot (Original) Solution 12] (Eterna round: R97, puzzle: Exclusion 1) | – | – | – | 0.0554 µM | 0.024 µM | –
29 | GCAGGAUAAGUCAGGAUAUACCUAUGGAUACAUAGGUAGAAGGGACAUGAGGAUCACCCAUGUGACUCACCUGC [Fiskers BMX 4 - 62] (puzzle: Brourd's mod of Exclusion 4) | 0.0956 µM | 0.0278 µM | 0.027 µM | – | – | –
30 | UUAUUACAAGCAAGAUCUCACAUGAGGAUCACCCAUGUGCUCGUCUUAAAAGGUACUGUGACGAAAGUCACGGUACC [Eli 100 v3] (Eterna round: R97, puzzle: Sensor, turn-off variant 1) | – | – | – | 0.0164 µM | 0.0149 µM | –
31 | CUUAGACAUGAGGAUCACCCAUGUGAGGAUAUGAUGCGAAUAAAGAAAGAAGAAAGCAUCAGAAGGCACAUAUG (Eterna round: R96, puzzle: Exclusion 1) | – | – | – | 0.382 µM | 0.125 µM | 0.0941 µM
32 | AGUGUGUGGCAGGAUAUGCGAUUUGUAGGUGAAGCAGAAGGGUCUACAUGAGGAUCACCCAUGUGUGCGGUUGA [Ex6 #18] (Eterna round: R97, puzzle: Exclusion 6) | – | – | – | 0.457 µM | 0.216 µM | –
33 | AAAGAACAUGAGGAUCACCCAUGUGAGGAUAUGCGAAAACCGCUGACAAACCAGACGGGCAGAAGGCAUAUGGU [Birima] (puzzle: Exclusion 1) | – | 0.0562 µM | – | – | – | –
34 | AAUAGUAAUAAGGAUAUCACUAGCCUCGGCUAGUGAGAAGGUAUUACAUGAGGAUCACCCAUGUGGUCAAUUAA [E6/4-A2] (Eterna round: R97, puzzle: Exclusion 6) | – | – | – | 1.11 µM | 1.13 µM | –
